T1: FcγRIIb extracellular domain with C-terminal His tag (human, UniProt P31994 43-217)
T1 construct: extracellular domain; Expressed in FreeStyle293 cells; analyte in the SPR assay; also called FcgRIIb; 2b
T1 sequence (looked up): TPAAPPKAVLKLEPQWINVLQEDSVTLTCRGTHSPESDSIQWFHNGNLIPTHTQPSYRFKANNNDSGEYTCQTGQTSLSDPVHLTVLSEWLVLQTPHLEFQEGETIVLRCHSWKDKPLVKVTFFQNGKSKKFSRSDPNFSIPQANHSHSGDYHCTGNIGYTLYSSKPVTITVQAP

T2: FcγRIIa R (FcγRIIa allotype with Arg at position 131), extracellular domain with C-terminal His tag (human, UniProt P12318 34-217)
T2 construct: extracellular domain; made in FreeStyle293 cells; analyte in the Biacore assay; also called FcγRIIa type R; 2aR
T2 sequence (looked up): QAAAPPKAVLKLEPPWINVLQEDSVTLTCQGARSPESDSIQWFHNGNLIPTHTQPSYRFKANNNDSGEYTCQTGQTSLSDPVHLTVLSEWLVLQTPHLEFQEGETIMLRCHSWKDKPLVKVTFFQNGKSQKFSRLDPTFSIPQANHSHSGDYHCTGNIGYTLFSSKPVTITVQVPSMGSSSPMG

T3: FcγRIIb, extracellular domain with C-terminal His tag (human, UniProt P31994 43-217)
T3 construct: extracellular domain; made in FreeStyle293 cells; analyte in the Biacore assay; also called 2b; FcgRIIb
T3 sequence (looked up): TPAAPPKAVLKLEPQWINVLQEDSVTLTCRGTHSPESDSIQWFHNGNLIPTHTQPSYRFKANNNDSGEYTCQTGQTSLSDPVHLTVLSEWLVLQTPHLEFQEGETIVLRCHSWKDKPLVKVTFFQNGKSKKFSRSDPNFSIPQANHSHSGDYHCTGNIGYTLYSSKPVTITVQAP


Key:
[1] = biological target: T4, FcγRIa extracellular domain with C-terminal His tag (human, UniProt P12314 16-292); assay: SPR (Biacore), relative binding, HeCon Ab = 100
T4 construct: extracellular domain; Expressed in FreeStyle293 cells; analyte in the SPR assay; also called FcgRI; 1a
T4 sequence (P12314 16-292): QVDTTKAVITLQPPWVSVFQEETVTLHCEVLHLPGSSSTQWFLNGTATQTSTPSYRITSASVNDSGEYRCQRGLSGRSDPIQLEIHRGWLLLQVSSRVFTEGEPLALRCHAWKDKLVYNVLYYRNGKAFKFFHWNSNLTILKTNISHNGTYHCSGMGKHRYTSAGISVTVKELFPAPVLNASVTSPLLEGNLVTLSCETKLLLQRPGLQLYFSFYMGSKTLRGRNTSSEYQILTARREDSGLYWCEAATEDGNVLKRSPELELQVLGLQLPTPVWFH

[2] = biological target: T1, FcγRIIb extracellular domain with …; assay: SPR (Biacore), relative binding, HeCon Ab = 100
[3] = biological target: T2, FcγRIIa R (FcγRIIa allotype with Arg at …); assay: SPR (Biacore), antibody captured, FcγR analyte; vs GpH7-A5/GpH7-B3/GpL16-k0 = 100
Protocol: (§1) The heterodimerized antibodies He Abs in which one of the H chains was introduced with an alteration were assayed for their binding activities to each activating FcγR and inhibitory FcγR according to the method described in Example 4. […] The activating FcγRs in FIGS. 26, 27, 28, and 29 are FcγRIa, FcγRIIa (R), FcγRIIa (H), and FcγRIIIa, respectively.
(§2) Analysis of interaction between objective antibody and the FcγR was carried out using Biacore T100 (GE Healthcare). HBS-EP+ (GE Healthcare) was used as the running buffer, and the measurement temperature was set to 25° C. Chips produced by immobilizing the antigen peptide by the amine coupling method to a Series S Sencor Chip CM5 (GE Healthcare), or alternatively, chips produced by allowing preliminarily biotinylated antigen peptides to interact with and immobilize onto a Series S Sensor Chip SA (certified) (GE Healthcare) were used. Antibodies of interest were captured onto an antigen peptide-immobilized chip, and allowed to interact to each FcγR diluted with running buffer. To regenerate and repeatedly use the chip, the antibodies captured on the chip were washed off by reacting 10 mM glycine-HCl, pH 1.5.

[4] = biological target: T3, FcγRIIb, extracellular domain with …; assay: as above
Protocol: as §1, §2

He/Con_1a [1]	He/Con_2b [2]	He/Con_2aR [3]	He/Con_2b [4]	Binder
103 % of HeCon Ab (=100)	84.3 % of HeCon Ab (=100)	–	–	GpH7-A5/GpH7-B3 variant Q295_07I/GpL16-k0 (He Ab) (antibody, human IgG1, kappa, He Ab: mutation in one H chain only) heavy 1: not shown heavy 2: not shown light: DIVMTQSPLSLPVTPGEPASISCQASESLVHSNRNTYLHWYLQKPGQSPQLLIYKVSNRFSGVPDRFSGSGSGTDFTLKISRVEAEDVGVYYCSQNTHVPPTFGQGTKVEIERTVAAPSVFIFPPSDEQLKSGTASVVCLLNNFYPREAKVQWKVDNALQSGNSQESVTEQDSKDSTYSLSSTLTLSKADYEKHKVYACEVTHQGLSSPVTKSFNRGEC
100 % of HeCon Ab (=100)	65.9 % of HeCon Ab (=100)	–	–	GpH7-A5/GpH7-B3 variant S267_16H/GpL16-k0 (He Ab) (antibody, human IgG1, kappa, He Ab: mutation in one H chain only) heavy 1: not shown heavy 2: not shown light: DIVMTQSPLSLPVTPGEPASISCQASESLVHSNRNTYLHWYLQKPGQSPQLLIYKVSNRFSGVPDRFSGSGSGTDFTLKISRVEAEDVGVYYCSQNTHVPPTFGQGTKVEIERTVAAPSVFIFPPSDEQLKSGTASVVCLLNNFYPREAKVQWKVDNALQSGNSQESVTEQDSKDSTYSLSSTLTLSKADYEKHKVYACEVTHQGLSSPVTKSFNRGEC
100 % of HeCon Ab (=100)	89.2 % of HeCon Ab (=100)	–	–	GpH7-A5/GpH7-B3 variant V266_19Q/GpL16-k0 (He Ab) (antibody, human IgG1, kappa, He Ab: mutation in one H chain only) heavy 1: not shown heavy 2: not shown light: DIVMTQSPLSLPVTPGEPASISCQASESLVHSNRNTYLHWYLQKPGQSPQLLIYKVSNRFSGVPDRFSGSGSGTDFTLKISRVEAEDVGVYYCSQNTHVPPTFGQGTKVEIERTVAAPSVFIFPPSDEQLKSGTASVVCLLNNFYPREAKVQWKVDNALQSGNSQESVTEQDSKDSTYSLSSTLTLSKADYEKHKVYACEVTHQGLSSPVTKSFNRGEC
101 % of HeCon Ab (=100)	97.3 % of HeCon Ab (=100)	–	–	GpH7-A5/GpH7-B3 variant S239_14T/GpL16-k0 (He Ab) (antibody, human IgG1, kappa, He Ab: mutation in one H chain only) heavy 1: not shown heavy 2: not shown light: DIVMTQSPLSLPVTPGEPASISCQASESLVHSNRNTYLHWYLQKPGQSPQLLIYKVSNRFSGVPDRFSGSGSGTDFTLKISRVEAEDVGVYYCSQNTHVPPTFGQGTKVEIERTVAAPSVFIFPPSDEQLKSGTASVVCLLNNFYPREAKVQWKVDNALQSGNSQESVTEQDSKDSTYSLSSTLTLSKADYEKHKVYACEVTHQGLSSPVTKSFNRGEC

Continued, binder first:

Binder	He/Con_1a [1]	He/Con_2b [2]	He/Con_2aR [3]	He/Con_2b [4]
GpH7-A5/GpH7-B3 variant S267_18N/GpL16-k0 (He Ab) (antibody, human IgG1, kappa, He Ab: mutation in one H chain only) heavy 1: not shown heavy 2: not shown light: DIVMTQSPLSLPVTPGEPASISCQASESLVHSNRNTYLHWYLQKPGQSPQLLIYKVSNRFSGVPDRFSGSGSGTDFTLKISRVEAEDVGVYYCSQNTHVPPTFGQGTKVEIERTVAAPSVFIFPPSDEQLKSGTASVVCLLNNFYPREAKVQWKVDNALQSGNSQESVTEQDSKDSTYSLSSTLTLSKADYEKHKVYACEVTHQGLSSPVTKSFNRGEC	102 % of HeCon Ab (=100)	47.7 % of HeCon Ab (=100)	–	–
GpH7-A5/GpH7-B3 variant A330_12R/GpL16-k0 (antibody, human IgG1, kappa, heterodimerized IgG1, mutation in one H chain only; also called He Ab) heavy 1: not shown heavy 2: not shown light: DIVMTQSPLSLPVTPGEPASISCQASESLVHSNRNTYLHWYLQKPGQSPQLLIYKVSNRFSGVPDRFSGSGSGTDFTLKISRVEAEDVGVYYCSQNTHVPPTFGQGTKVEIERTVAAPSVFIFPPSDEQLKSGTASVVCLLNNFYPREAKVQWKVDNALQSGNSQESVTEQDSKDSTYSLSSTLTLSKADYEKHKVYACEVTHQGLSSPVTKSFNRGEC	–	–	104 relative (HeCon Ab = 100)	84.8 relative (HeCon Ab = 100)
GpH7-A5/GpH7-B3 variant Q295_03V/GpL16-k0 (He Ab) (antibody, human IgG1, kappa, He Ab: mutation in one H chain only) heavy 1: not shown heavy 2: not shown light: DIVMTQSPLSLPVTPGEPASISCQASESLVHSNRNTYLHWYLQKPGQSPQLLIYKVSNRFSGVPDRFSGSGSGTDFTLKISRVEAEDVGVYYCSQNTHVPPTFGQGTKVEIERTVAAPSVFIFPPSDEQLKSGTASVVCLLNNFYPREAKVQWKVDNALQSGNSQESVTEQDSKDSTYSLSSTLTLSKADYEKHKVYACEVTHQGLSSPVTKSFNRGEC	104 % of HeCon Ab (=100)	75.7 % of HeCon Ab (=100)	–	–
GpH7-A5/GpH7-B3 variant A330_19Q/GpL16-k0 (antibody, human IgG1, kappa, heterodimerized IgG1, mutation in one H chain only; also called He Ab) heavy 1: not shown heavy 2: not shown light: DIVMTQSPLSLPVTPGEPASISCQASESLVHSNRNTYLHWYLQKPGQSPQLLIYKVSNRFSGVPDRFSGSGSGTDFTLKISRVEAEDVGVYYCSQNTHVPPTFGQGTKVEIERTVAAPSVFIFPPSDEQLKSGTASVVCLLNNFYPREAKVQWKVDNALQSGNSQESVTEQDSKDSTYSLSSTLTLSKADYEKHKVYACEVTHQGLSSPVTKSFNRGEC	–	–	104 relative (HeCon Ab = 100)	90.8 relative (HeCon Ab = 100)
GpH7-A5/GpH7-B3 variant S239_19Q/GpL16-k0 (He Ab) (antibody, human IgG1, kappa, He Ab: mutation in one H chain only) heavy 1: not shown heavy 2: not shown light: DIVMTQSPLSLPVTPGEPASISCQASESLVHSNRNTYLHWYLQKPGQSPQLLIYKVSNRFSGVPDRFSGSGSGTDFTLKISRVEAEDVGVYYCSQNTHVPPTFGQGTKVEIERTVAAPSVFIFPPSDEQLKSGTASVVCLLNNFYPREAKVQWKVDNALQSGNSQESVTEQDSKDSTYSLSSTLTLSKADYEKHKVYACEVTHQGLSSPVTKSFNRGEC	101 % of HeCon Ab (=100)	86.1 % of HeCon Ab (=100)	–	–

From patent US20150344570A1 (published 2015)
